The target in experiment [1] is human IGF-1R (soluble, analyte in SPR) (human) (UniProt P08069). In words: SPR (ProteOn XPR36), 25 C, Fab captured by anti-Fab; ratio against parental Ak18.
For experiment [2] the target is unchanged. Briefly: SPR (ProteOn XPR36), 25 C, Fab captured by anti-Fab, IGF-1R as analyte.

By Kd is commonly meant the free concentration of one partner at which half of the binding sites on the other are occupied at equilibrium, for simple one-to-one binding. A lower Kd goes with tighter binding. For orientation: koff means the first-order rate constant of dissociation. A lower koff goes with slow dissociation. The term kon denotes the second-order rate constant of association. A lower kon goes with slow association.

B1: <IGF-1R> F13B5 Fab fragment (affinity-matured <IGF-1R> HUMAB-Clone 18) (Fab, V domains shown)
VH: QVELVESGGGVVQPGRSQRLSCAASGFTFSSYGMHWVRQAPGKGLEWVAIIWFDGSSTYYADSVRGRFTISRDNSKNTLYLQMNSLRAEDTAVYFCARELGRRYFDLWGRGTLVSVSS
VL: EIVLTQSPATLSLSPGERATLSCRASQSVSSYLAWYQQKPGQAPRLLIYQASKRATGIPARFSGSGSGTDFTLTISSLEPEDFAVYYCQQRSKYPPWTFGQGTKVESK
B1: the x-fold increase of binding affinity (=KD (unmodified AK18)/KD (CDR-modified)) in experiment [1] came out at 12.4 fold. In experiment [2], this molecule yielded a Kd of 1.47 nM, a koff of 0.00025 s⁻¹ and a kon of 170000 M⁻¹ s⁻¹.

B2: <IGF-1R> L39D7 Fab fragment (affinity-matured <IGF-1R> HUMAB-Clone 18) (Fab, V domains shown)
VH: QVELVESGGGVVQPGRSQRLSCAASGFTFSSYGMHWVRQAPGKGLEWVAIIWFDGSSTYYADSVRGRFTISRDNSKNTLYLQMNSLRAEDTAVYFCARELGRRYFDLWGRGTLVSVSS
VL: EIVLTQSPATLSLSPGERATLSCRASQSVSKQLAWYQQKPGQAPRLLIYNASKRATGIPARFSGSGSGTDFTLTISSLEPEDFAVYYCQQRSKYPPWTFGQGTKVESK
Regarding B2, the x-fold increase of binding affinity (=KD (unmodified AK18)/KD (CDR-modified)) in experiment [1] worked out at 23.8 fold. In experiment [2], the Kd was determined as 0.769 nM, the off-rate (koff) was determined as 0.00027 s⁻¹ and the kon amounted to 351000 M⁻¹ s⁻¹.

B3: <IGF-1R> L37F7 Fab fragment (affinity-matured <IGF-1R> HUMAB-Clone 18) (Fab, V domains shown)
VH: QVELVESGGGVVQPGRSQRLSCAASGFTFSSYGMHWVRQAPGKGLEWVAIIWFDGSSTYYADSVRGRFTISRDNSKNTLYLQMNSLRAEDTAVYFCARELGRRYFDLWGRGTLVSVSS
VL: EIVLTQSPATLSLSPGERATLSCRASQSVSSQLAWYQQKPGQAPRLLIYKATNRATGIPARFSGSGSGTDFTLTISSLEPEDFAVYYCQQRSKYPPWTFGQGTKVESK
As to B3, the x-fold increase of binding affinity (=KD (unmodified AK18)/KD (CDR-modified)) in experiment [1] is 17.9 fold. In experiment [2], this molecule yielded a Kd of 1.02 nM, an off-rate constant (koff) of 0.000237 s⁻¹ and a kon of 232000 M⁻¹ s⁻¹.

B4: <IGF-1R> L31D7 Fab fragment (affinity-matured <IGF-1R> HUMAB-Clone 18) (Fab, V domains shown)
VH: QVELVESGGGVVQPGRSQRLSCAASGFTFSSYGMHWVRQAPGKGLEWVAIIWFDGSSTYYADSVRGRFTISRDNSKNTLYLQMNSLRAEDTAVYFCARELGRRYFDLWGRGTLVSVSS
VL: EIVLTQSPATLSLSPGERATLSCRASQSVIQSLAWYQQKPGQAPRLLIYRASKRATGIPARFSGSGSGTDFTLTISSLEPEDFAVYYCQQRSKWPPWTFGQGTKVESK
Turning to B4, the x-fold increase of binding affinity (=KD (unmodified AK18)/KD (CDR-modified)) in experiment [1] is 17.8 fold. In experiment [2], this molecule returned a dissociation constant Kd of 1.03 nM, an off-rate constant (koff) of 0.000538 s⁻¹ and a kon of 523000 M⁻¹ s⁻¹.

B5: <IGF-1R> L31D11 Fab fragment (affinity-matured <IGF-1R> HUMAB-Clone 18) (Fab, V domains shown)
VH: QVELVESGGGVVQPGRSQRLSCAASGFTFSSYGMHWVRQAPGKGLEWVAIIWFDGSSTYYADSVRGRFTISRDNSKNTLYLQMNSLRAEDTAVYFCARELGRRYFDLWGRGTLVSVSS
VL: EIVLTQSPATLSLSPGERATLSCRASRSVYSSLAWYQQKPGQAPRLLIYKASSRATGIPARFSGSGSGTDFTLTISSLEPEDFAVYYCQQRSKWPPWTFGQGTKVESK
Take B5: the x-fold increase of binding affinity (=KD (unmodified AK18)/KD (CDR-modified)) in experiment [1] was 68 fold. For the same molecule, in experiment [2], the Kd was 0.269 nM, the koff was 0.000153 s⁻¹ and the association rate constant (kon) turned out to be 571000 M⁻¹ s⁻¹.

Source of the values: patent publication US20140193415A1.
